From patent US20090227507A1, “Angiotensin (1-7) Dosage Forms and Uses Thereof” (UNIVERSITY OF SOUTHERN CALIFORNIA, priority 2008, published 2009)

Test: Hematology profile (CBC with differential, platelet count) in healthy men;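 on Platelet Count, Median Change from Baseline: Thousands of platelets per mm³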;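 on Platelet Count, Median: Thousands of platelets per mm³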
Assay type: in vivo, human
Conditions: for number of various white blood cell types in peripheral blood above baseline levels: human administration
Experimental: Pharmacological Effect: The following evaluations (under efficacy and safety in the protocol) were performed: • Effects on the number of mature blood cells: • 1. CBC (with differential), platelet count, reticulocyte count. • Effects on early hematopoietic progenitor cells and mature lymphocyte subsets in the periphery: • 1. Flow cytometry to evaluate frequency of peripheral blood progenitor cells (eg, CD34^+) and lymphocyte subsets (eg, CD3, CD4, CD8) in peripheral blood. • 2. Collection of blood for later possible culture for progenitor cells (eg, colony forming units-granulocyte/macrophage [CFU-GM]) to evaluate potential effects on CD34^+ hematopoietic progenitor cells in peripheral blood. • 3.
The effect of USB003 on the number of mature blood cells was assessed by the complete blood count with differential, platelet and reticulocyte counts. The effects on early hematopoietic progenitor cells and mature lymphocyte subsets in the periphery were assessed by flow cytometry. In addition, blood was collected and processed to enable culture of progenitors at a later time.
Red blood cell (RBC) count, RBC indices, white blood cell count (WBC) with differential, reticulocyte count, platelet count, hemoglobin (Hb), hematocrit (Hct), plasma hemoglobin, peripheral flow cytometry, including CD34^+, flow cytometry for enumeration of CD3, CD4, and CD8 lymphocytes, and culture for progenitor cells in peripheral blood including colony-forming units-granulocyte/macrophage (CFU-GM).

[1] = 300 μg/kg, N = 8, baseline to Day 8
[2] = 300 μg/kg, N = 8, baseline to Day 20
[3] = 300 μg/kg, Study Termination Visit Day 19
[4] = 300 μg/kg, repeat test 10 days later
[5] = Subject 042, 300 μg/kg, Day 29 U (unscheduled)

Asp-Arg-Val-Tyr-Ile-His-Pro [USB003]
Eosinophils shift L-N, number of subjects [1]: — (“—” = 0)
Eosinophils shift N-H, number of subjects [1]: — (“—” = 0)
Eosinophils shift N-L, number of subjects [1]: — (“—” = 0)
Hematocrit shift H-N, number of subjects [1]: — (“—” = 0)
Hematocrit shift L-N, number of subjects [1]: — (“—” = 0)
Hematocrit shift N-H, number of subjects [1]: — (“—” = 0)
Hematocrit shift N-L, number of subjects [1]: 2
Hemoglobin shift H-N, number of subjects [1]: — (“—” = 0)
Hemoglobin shift L-N, number of subjects [1]: — (“—” = 0)
Hemoglobin shift N-H, number of subjects [1]: — (“—” = 0)
Hemoglobin shift N-L, number of subjects [1]: 2
Lymphocytes shift H-N, number of subjects [1]: — (“—” = 0)
Lymphocytes shift L-N, number of subjects [1]: — (“—” = 0)
Lymphocytes shift N-H, number of subjects [1]: — (“—” = 0)
Lymphocytes shift N-L, number of subjects [1]: — (“—” = 0)
Plasma Hemoglobin shift H-N, number of subjects [1]: — (“—” = 0)
Plasma Hemoglobin shift L-N, number of subjects [1]: — (“—” = 0)
Plasma Hemoglobin shift N-H, number of subjects [1]: — (“—” = 0)
Plasma Hemoglobin shift N-L, number of subjects [1]: — (“—” = 0)
Platelet Count shift H-N, number of subjects [1]: — (“—” = 0)
Platelet Count shift L-N, number of subjects [1]: 1
Platelet Count shift N-H, number of subjects [1]: — (“—” = 0)
Platelet Count shift N-L, number of subjects [1]: — (“—” = 0)
RBC shift H-N, number of subjects [1]: — (“—” = 0)
RBC shift L-N, number of subjects [1]: — (“—” = 0)
RBC shift N-H, number of subjects [1]: — (“—” = 0)
RBC shift N-L, number of subjects [1]: 1
Segmented Neutrophils shift H-N, number of subjects [1]: — (“—” = 0)
Segmented Neutrophils shift L-N, number of subjects [1]: — (“—” = 0)
Segmented Neutrophils shift N-H, number of subjects [1]: — (“—” = 0)
Segmented Neutrophils shift N-L, number of subjects [1]: — (“—” = 0)
Absolute Eosinophils shift H-N, number of subjects [2]: — (“—” = 0)
Absolute Eosinophils shift L-N, number of subjects [2]: — (“—” = 0)
Absolute Eosinophils shift N-H, number of subjects [2]: — (“—” = 0)
Absolute Eosinophils shift N-L, number of subjects [2]: — (“—” = 0)
Absolute Neutrophils shift H-N, number of subjects [2]: — (“—” = 0)
Absolute Neutrophils shift L-N, number of subjects [2]: — (“—” = 0)
Absolute Neutrophils shift N-H, number of subjects [2]: 1
Absolute Neutrophils shift N-L, number of subjects [2]: — (“—” = 0)
Absolute Reticulocytes shift H-N, number of subjects [2]: — (“—” = 0)
Absolute Reticulocytes shift L-N, number of subjects [2]: — (“—” = 0)
Absolute Reticulocytes shift N-H, number of subjects [2]: — (“—” = 0)
Absolute Reticulocytes shift N-L, number of subjects [2]: — (“—” = 0)
Eosinophils shift H-N, number of subjects [2]: 1
Eosinophils shift L-N, number of subjects [2]: — (“—” = 0)
Eosinophils shift N-H, number of subjects [2]: 2
Eosinophils shift N-L, number of subjects [2]: — (“—” = 0)
Hematocrit shift H-N, number of subjects [2]: — (“—” = 0)
Hematocrit shift L-N, number of subjects [2]: — (“—” = 0)
Hematocrit shift N-H, number of subjects [2]: — (“—” = 0)
Hematocrit shift N-L, number of subjects [2]: 4
Hemoglobin shift H-N, number of subjects [2]: — (“—” = 0)
Hemoglobin shift L-N, number of subjects [2]: — (“—” = 0)
Hemoglobin shift N-H, number of subjects [2]: — (“—” = 0)
Hemoglobin shift N-L, number of subjects [2]: 3
Lymphocytes shift H-N, number of subjects [2]: 1
Lymphocytes shift L-N, number of subjects [2]: — (“—” = 0)
Lymphocytes shift N-H, number of subjects [2]: — (“—” = 0)
Lymphocytes shift N-L, number of subjects [2]: — (“—” = 0)
Monocytes shift H-N, number of subjects [2]: — (“—” = 0)
Monocytes shift L-N, number of subjects [2]: — (“—” = 0)
Monocytes shift N-H, number of subjects [2]: — (“—” = 0)
Monocytes shift N-L, number of subjects [2]: — (“—” = 0)
Plasma Hemoglobin shift H-N, number of subjects [2]: — (“—” = 0)
Plasma Hemoglobin shift L-N, number of subjects [2]: — (“—” = 0)
Plasma Hemoglobin shift N-H, number of subjects [2]: 1
Plasma Hemoglobin shift N-L, number of subjects [2]: — (“—” = 0)
Platelet Count shift H-N, number of subjects [2]: — (“—” = 0)
Platelet Count shift L-N, number of subjects [2]: 1
Platelet Count shift N-H, number of subjects [2]: — (“—” = 0)
Platelet Count shift N-L, number of subjects [2]: — (“—” = 0)
RBC shift H-N, number of subjects [2]: — (“—” = 0)
RBC shift L-N, number of subjects [2]: — (“—” = 0)
RBC shift N-H, number of subjects [2]: — (“—” = 0)
RBC shift N-L, number of subjects [2]: 2
RDW shift H-N, number of subjects [2]: — (“—” = 0)
RDW shift L-N, number of subjects [2]: — (“—” = 0)
RDW shift N-H, number of subjects [2]: — (“—” = 0)
RDW shift N-L, number of subjects [2]: — (“—” = 0)
Segmented Neutrophils shift H-N, number of subjects [2]: — (“—” = 0)
Segmented Neutrophils shift L-N, number of subjects [2]: — (“—” = 0)
Segmented Neutrophils shift N-H, number of subjects [2]: 2
Segmented Neutrophils shift N-L, number of subjects [2]: — (“—” = 0)
WBC shift H-N, number of subjects [2]: — (“—” = 0)
WBC shift L-N, number of subjects [2]: — (“—” = 0)
WBC shift N-H, number of subjects [2]: 1
WBC shift N-L, number of subjects [2]: — (“—” = 0)
Absolute Neutrophils, Median (300 μg/kg, Baseline): 2.85 thousands/mm^3
Hematocrit, Median (300 μg/kg, Baseline): 45.25%
Hemoglobin, Median (300 μg/kg, Baseline): 15.60 g/dL
Lymphocytes, Median (300 μg/kg, Baseline): 33.60%
Platelet Count, Median (300 μg/kg, Baseline): 216.0 thousands/mm^3
WBC, Median (300 μg/kg, Baseline): 5.15 thousands/mm^3
Absolute Neutrophils, Median (300 μg/kg, Day 8): 2.95 thousands/mm^3
Absolute Neutrophils, Median Change from Baseline (300 μg/kg, Day 8): −0.10 thousands/mm^3
Hematocrit, Median (300 μg/kg, Day 8): 42.30%
Hematocrit, Median Change from Baseline (300 μg/kg, Day 8): −2.10%
Hemoglobin, Median (300 μg/kg, Day 8): 14.40 g/dL
Hemoglobin, Median Change from Baseline (300 μg/kg, Day 8): -1.15 g/dL
Lymphocytes, Median (300 μg/kg, Day 8): 34.50%
Lymphocytes, Median Change from Baseline (300 μg/kg, Day 8): 1.00%
Platelet Count, Median (300 μg/kg, Day 8): 243.0 thousands/mm^3
Platelet Count, Median Change from Baseline (300 μg/kg, Day 8): 22.5 thousands/mm^3
WBC, Median (300 μg/kg, Day 8): 5.65 thousands/mm^3
WBC, Median Change from Baseline (300 μg/kg, Day 8): −0.30 thousands/mm^3
Absolute Neutrophils, Median (300 μg/kg, Day 20): 3.80 thousands/mm^3
Absolute Neutrophils, Median Change from Baseline (300 μg/kg, Day 20): 0.75 thousands/mm^3
Hematocrit, Median (300 μg/kg, Day 20): 40.45%
Hematocrit, Median Change from Baseline (300 μg/kg, Day 20): −3.45%
Hemoglobin, Median (300 μg/kg, Day 20): 14.0 g/dL
Hemoglobin, Median Change from Baseline (300 μg/kg, Day 20): -1.30 g/dL
Lymphocytes, Median (300 μg/kg, Day 20): 29.75%
Lymphocytes, Median Change from Baseline (300 μg/kg, Day 20): −3.90%
Platelet Count, Median (300 μg/kg, Day 20): 243.5 thousands/mm^3
Platelet Count, Median Change from Baseline (300 μg/kg, Day 20): 14 thousands/mm^3
WBC, Median (300 μg/kg, Day 20): 6.55 thousands/mm^3
WBC, Median Change from Baseline (300 μg/kg, Day 20): 1.30 thousands/mm^3
WBC value, Subject 042 [3]: 13,400 cells/mm^3
segmented neutrophils, Subject 042 [3]: 84.9%
WBC count, Subject 042 [4]: 8,900 cells/mm^3
segmented neutrophils, Subject 042 [4]: 73.5%
total WBC and neutrophil concentrations (200 and 300 μg/kg SC): increases
WBC Significance (Subject 027, 200 μg/kg, Day 11): CS AE
WBC Value (Subject 027, 200 μg/kg, Day 11): 12.7 10^3/mm³
WBC High/Low Normal/Abnormal (Subject 027, 200 μg/kg, Day 14): N
WBC Value (Subject 027, 200 μg/kg, Day 14): 7.3 10^3/mm³
Segmented Neutrophils Significance (Subject 042, 300 μg/kg, Day 19): CS AE
Segmented Neutrophils Value (Subject 042, 300 μg/kg, Day 19): 84.9%
WBC Significance (Subject 042, 300 μg/kg, Day 19): CS AE
WBC Value (Subject 042, 300 μg/kg, Day 19): 13.4 10^3/mm³
Segmented Neutrophils Significance [5]: NCS
Segmented Neutrophils Value [5]: 73.5%
WBC High/Low Normal/Abnormal [5]: N
WBC Value [5]: 8.9 10^3/mm³
peripheral blood concentrations of WBC, neutrophils, CD3, CD34+, CD4 and CD8 (during the administration of USB003): elevations
time for all hematological parameters to return to baseline (following discontinuation of USB003 administration): ≤ 12 days
number of various white blood cell types in peripheral blood above baseline levels (doses of 300 μg/kg or more): increasing the number of various white blood cell types
number of various white blood cell types in peripheral blood above baseline levels (lower doses (200 μg/kg)): did not provide such an increase over baseline
